From patent publication US20170137512A1
Like-named read-outs stand apart in the source and are kept apart here.

Assays:
[1] = biological target: human Kv1.3 (Homo sapiens) (UniProt P22001); experiment: cell-based or functional assay
[2] = biological target: human Kv1.3 (Homo sapiens), P22001; experiment: cell-based or functional assay
[3] = biological target: human Kv1.3 (Homo sapiens), P22001
[4] = biological target: T1, cyno Kv1.3 (Macaca fascicularis)
T1 chain: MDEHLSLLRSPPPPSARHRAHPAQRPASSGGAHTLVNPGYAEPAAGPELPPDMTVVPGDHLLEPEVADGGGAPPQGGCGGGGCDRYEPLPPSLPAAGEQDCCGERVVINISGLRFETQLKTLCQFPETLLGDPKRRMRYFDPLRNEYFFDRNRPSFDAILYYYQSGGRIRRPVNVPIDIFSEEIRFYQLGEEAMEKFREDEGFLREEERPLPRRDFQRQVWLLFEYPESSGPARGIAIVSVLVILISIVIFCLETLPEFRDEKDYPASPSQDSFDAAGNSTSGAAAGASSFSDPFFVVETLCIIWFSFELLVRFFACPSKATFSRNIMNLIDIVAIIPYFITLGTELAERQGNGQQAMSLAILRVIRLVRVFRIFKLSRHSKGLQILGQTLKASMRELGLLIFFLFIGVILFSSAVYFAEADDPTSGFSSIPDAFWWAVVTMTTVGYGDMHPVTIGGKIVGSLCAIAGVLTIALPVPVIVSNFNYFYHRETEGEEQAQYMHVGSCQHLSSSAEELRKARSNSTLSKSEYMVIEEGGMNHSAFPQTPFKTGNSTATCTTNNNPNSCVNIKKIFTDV

[5] = biological target: human Kv1.3 (Homo sapiens), P22001; experiment: cell-based or functional assay; remark: listed apart in the source
[6] = biological target: human Kv1.3 (Homo sapiens), P22001; remark: listed apart in the source
[7] = biological target: T1, cyno Kv1.3 (Macaca fascicularis); experiment: titration of radiolabeled margatoxin on CHO-cyKv1.3 cells

B1: A0194020A06 (VHH, not shown: small tags and cut ends)
VHH: EVQLVESGGGLVQAGGSLGLSCSASGLLFSRNSAGWYRQAPGKRREFVARIRMGGSINYADSVKGRFTVSRDNAKNMMYLQMNDLKPEDTAVYFCSGWREGFYEYWGQGTLVTVSS
[1]
  Average IC50, Kv1.3 current, IonFlux automated patch clamp, HEK293H cells: 13.4 nM
  IC50, CD25 read out, CCR7-CD45RA- T cells stimulated with anti-CD3: 36 nM
  IC50, IFNγ read out, CCR7-CD45RA- T cells stimulated with anti-CD3: 30 nM

## RSCIDTIPKSRCTAFQCKHSMKYRLSFCRKTCGTC (modifications not checked) [ShK-1aJ (Smartox, #08SHK001), P29187 1-35]
[2]
  Average IC50, Kv1.3 current, IonFlux automated patch clamp, HEK293H cells: 0.076 nM
  Average IC50, Kv1.3 current, IonWorks perforated patch clamp, CHL cells: 0.4 nM
  IC50, CD25 read out, CCR7-CD45RA- T cells stimulated with anti-CD3: 0.27 nM
  IC50, CD25 read out, T cell activation assay: 0.73 nM
  IC50, CD25 read out, T cell activation assay, with 10 µM HSA: 0.038 nM
  IC50, IFNγ production, T-cell activation assay: 0.041 nM
  IC50, IFNγ read out, CCR7-CD45RA- T cells stimulated with anti-CD3: 0.076 nM
  IC50, IFNγ read out, T cell activation assay: 0.14 nM
  IC50, IFNγ read out, T cell activation assay, with 10 µM HSA: 0.027 nM
[3]
  % inhibition: 102%
[4]
  IC50: 0.24 nM
[5]
  IC50, CD25 read out, CCR7-CD45RA- T cells stimulated with anti-CD3: 0.22 nM
  IC50, IFNγ read out, CCR7-CD45RA- T cells stimulated with anti-CD3: 0.065 nM
[6]
  IC50 (read off the curve): 10 nM

## TIINVKCTSPKQCLPPCKAQFGQSAGAKCMNGKCKCYPH (modifications not checked) [unlabeled margatoxin (Alamone labs, Cat RTM-325), P40755 1-39]
[2]
  IC50, IFNγ read out, CCR7-CD45RA- T cells stimulated with anti-CD3: 0.094 nM
[4]
  IC50: 0.24 nM

## TIINVKCTSPKQCLPPCKAQFGQSAGAKCMNGKCKCYPH (modifications not checked) [125I-margatoxin (Perkin Elmer, NEX083), P40755 1-39]
[7]
  EC30: 0.15 nM

B2: A0194016B04 (VHH, not shown: small tags and cut ends)
VHH: EVQLVESGGGLVQAGGSLRLSCSASGLLFSVNSAGWYRQAPGKQRDFVARIRSGGSTNYADSVKGRFTISRDKATNTLYLQMNNLKPEDTAVYYCSSWRTEAYEYWGRGTLVTVSS
[1]
  Average IC50, Kv1.3 current, IonFlux automated patch clamp, HEK293H cells: 84 nM
  Average IC50, Kv1.3 current, IonWorks perforated patch clamp, CHL cells: 34 nM
